A short description of the data set: yeast display, Sf9 membrane polyspecificity reagent, FACS + sequencing; frameworks hold sequencing errors. A digest of the protocol: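 A nanobody's polyreactivity label depends on the gate it was sorted from. Yeast display cells were stained with 10% biotinylated, detergent-solubilized Sf9 membrane reagent for 1 hour at 4 °C, enriched on streptavidin microbeads and sorted by FACS. The low and high (top ~1%) gates were set on anti-HA fluorescence for expression and streptavidin fluorescence for reagent binding.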
“QVQLVESGGGLVQAGGSLRLSCDASGNIFGLNAMGWYRQAPGKERELVSAISSGGSTNYADSVKGRFTISRDNAKNTVYLQMNSLKPEDTAVYYCAVQGSRYSYCYGYRFRTMDYWGQVTQVTVSS”: the “polyreactivity (PSR sort gate)” value is recorded as “high polyreactivity”.
In the case of “QVQLVESGGGLVQAGGSLRLSCDASGRIFAGYAMGWYRQAPGKERELVASINWSGGSTYYADSVKGRFTISRDNAKNTVYLQMNSLKPEDTAVYYCAKEPTYRSGEAYVGLYYWGQGTQVTVSS” it was “high polyreactivity”.
The result for “QVQLVESGGGLVQAGGSLRLSCDASGRIFAYYARGWYRQAPGKERELVAAITTNGGGTYYADSVKGRFTISRDNAKNTVYLQMNSLKPEDTGVYYCNAVKQRSSIFDYWGQGTQVTVSS” reads “low polyreactivity”.
For the sequence “QVQLVESGGGLVQAGGSLRLSCDASGRIFSRNSMGWYRQAPGKERELVAANTWRGGSTYYADSVKGRFTISRDNAKNTVYLQLNSLKPEDPAVYYCNRDYRQYGYAYSGRYYWGQGTQVTVSS”, the “polyreactivity (PSR sort gate)” value is on record as “high polyreactivity”.
As to “QVQLVESGGGLVQAGGSLRLSCDASGRIISYNAMGWYRQAPGKERELVAAISWGGGSTYYADSVKGRFTISRDNAKNTVYLQMNSLKPEDTAVYYCAKGWYRIKRNDYWGQGTQVTVSS”, the “polyreactivity (PSR sort gate)” value is “low polyreactivity”.
The result for “QVQLVESGGGLVQAGGSLRLSCDASGRILIGYTMGWYRQAPGKERELVARINYSGGSTYYADSVKGRFTISRDNAKNTVYLQMNSLKPEDTAVYYCDADVRRGYYTWPPRRVYYWGQGTQVTVSS” reads “high polyreactivity”; that for “QVQLVESGGGLVQAGGSLRLSCDASGRLFYRNAMGWYRQAPGKDRELVASITSAGRTYYADSVKGRFTISRDNAKNTVYLQMNSLKPEDTAVYYCAVRGYAKSFSNAKYYYWGQGTQVTVSS”, “low polyreactivity”.
In the case of “QVQLVESGGGLVQAGGSLRLSCDASGRMFALYAMGWYRQAPGKERELVAAITWRGGRTRYADSVKGRFTISRDNAKNTVYLQMTSLKPEDTAVYYCNKRLFASRYDYWGQGTQVTVSS” it was “high polyreactivity”; in that of “QVQLVESGGGLVQAGGSLRLSCDASGRTFLYYAMGWSRQAPGKERELVAAISSGGSTNYADSVKGRFTISRDNAKNTVYLQMNSLKPEDTAVYYCNADYTSRDTSDVIYEYDYWGQGTQVTVTS”, “low polyreactivity”.
With “QVQLVESGGGLVQAGGSLRLSCDASGRTFPINAMGWYRQAPGKERELVAAISSGDGITYYADSVKGRFTISRDNAKNTVYLQMNSLKPEDTAVYYCAKELSQGLRYDYWGQGTQVTVSS”, the “polyreactivity (PSR sort gate)” value is “high polyreactivity”.
The result for “QVQLVESGGGLVQAGGSLRLSCDASGRTFRYNAMGWYRQAPGKERELVAAISTRGGSTYYADSVKGRFTISRDNAKNTVYLQMNSLKPEDTAVYYCAADGRYAYGYNHWGQGTQVTVSS” reads “low polyreactivity”; that for “QVQLVESGGGLVQAGGSLRLSCDASGRTFWRYAMGWYRQAPGKERELVATISSGGSTNYADSVKGRFTISRDNAKNTVYLQMNSLKPEDTAVYYCNAEYSYYDLLAYDYWGQGTQVTVSS”, “low polyreactivity”.
In the case of “QVQLVESGGGLVQAGGSLRLSCDASGRTSVIYAMGWYRQAPGKERELVASIRRGGSTSYADSVKGRFTISRDNAKNTVYLQMNSLKPEDTAVYYCASTFKSGMDYWGQGTQVTVSS” it was “high polyreactivity”; in that of “QVQLVESGGGLVQAGGSLRLSCDASGSIFDHNSMGWYRQAPGKERELVAAISSNGVRTYYADSVKGRFTISRDNAKNTVYLQMNSLKTEDTAVYYCNAQRFVGLNVYGYDYWGQGTQVTVSS”, “high polyreactivity”; in that of “QVQLVESGGGLVQAGGSLRLSCDASGSIFGKYTMGWYRQAPGKVRELVAAISKRGGSTRYADSVKGRFTISRDNAKNTVYLQMNSLKPEDTAVYYCAAYRYWMYRYQIVNYGYWGQGTQVTVSS”, “high polyreactivity”.
On to “QVQLVESGGGLVQAGGSLRLSCDASGSIFKLNAMGWYRQAPGKERELVAAITSSGDSTYYADSVKGRFTISRDNAKNTVYLQMNSLKPEDTAVFYCNREDAGIMDYWGQGTHVTVSS”, for which the “polyreactivity (PSR sort gate)” value was “low polyreactivity”.
The result for “QVQLVESGGGLVQAGGSLRLSCDASGSIFSKYAMGWYRQAPGKERELVAAISWSGTSTYYADSVKGRFTISRDNAKNTVYLQMNSLKPEDTAVYYCAASSPRSLSLLGYWGQGTQVTVSS” reads “low polyreactivity”; that for “QVQLVESGGGLVQAGGSLRLSCDASGSILGTYALGWSRQAPGKERELVAAISSSGRTSYADSVKGRFTISRDNAKNTVYLQMNSLKPEDTAVYYCIASNYIVLINDPDAAPWLYDYWGQGTQVTVSS”, “low polyreactivity”.
In the case of “QVQLVESGGGLVQAGGSLRLSCDASGSTFGWYAMGWYRQAPGKERELVAAISKNGGRTYYADSVKGRFTISRDNAKNTVYLQMNSLKPVDTAVYYCNKVSKTVRDFDYWGQGTQVTVSS” it was “high polyreactivity”; in that of “QVQLVESGGGLVQAGGSLRLSCDASGSTFNANAMGWYRQAPWKERVLVAAISWNGGRTYYADSVKGRFTISRDNAKNTVYLQMNSLKPEDTAVYYCALVYTAGRNYYYWGQGTQVTVSS”, “high polyreactivity”; in that of “QVQLVESGGGLVQAGGSLRLSCDASGSTFPFYAMARYRQAPRKERELVAAIRNTGNTYYADSVKGSFTISRDNAKNTAYLQMNSLNPEDPAVYYCAKALRSASDYWGQGTQVTVSS”, “low polyreactivity”.
In the case of “QVQLVESGGGLVQAGGSLRLSCDASGSTFVRYVMRWYRHAPGKEMELVAAISRRGGSTYYADSVKGRFTISRDNAKNTVYLQMNSLKPEDTAVYYCARTVCYRTLLESDSCGQGTQVTVSS” it was “high polyreactivity”; in that of “QVQLVESGGGLVQAGGSLRLSCDASGSTFWFNDMGWYRQAPGKERELVAAIDWSDGSTYYADSVKGRFTISRDNAKNTVYLQMNSLKPEDTAVYFCAADHRYSARRSVPTLYDYWGQGTQVTVSS”, “low polyreactivity”; in that of “QVQLVESGGGLVQAGGSLRLSCDASGSTIYPYAMGWYRQAPGKERELVAAISSGGRTYYADSVKGRFTISRDNAKTTVYLQMNSLKPEDTAGYYCATYYYGWYTIDFYYWGQGTQVTVSS”, “high polyreactivity”.
For the sequence “QVQLVESGGGLVQAGGSLRLSCDDSGRTFYPYAMGRYRHAPGKERELVAAISYRGGSTYYADSVKGRFTISRDNAKNTVYLQMNCLKPEDRAVYYCAKRGYASGSKWDYGYWGQGTQLTVSS”, the “polyreactivity (PSR sort gate)” value is on record as “high polyreactivity”.
In the case of “QVQLVESGGGLVQAGGSLRLSCGASGGFFYFNAMGRYRQAPGKEREVVASITWSGGNTYYADSVKGRFTISRDNAKHTVDLQMNSLTPEDTAVYYCAADTLEYRPTYDYWGQGTQVTVSS”, the “polyreactivity (PSR sort gate)” value was “low polyreactivity”.
The result for “QVQLVESGGGLVQAGGSLRLSCGASGRIFAVNAMGWYRQARGKERELVAAITNVGSTNYADSVKGRFTISRDNAKNTVYLQMNSLKPEDTAVYYCNADLAQEDWKMDYWGLGTQVTVSS” reads “low polyreactivity”; that for “QVQLVESGGGLVQAGGSLRLSCGASGRIFPGNAMGWYRQATGKERELVAGISFSGGRTYYADSVKGRFTISRDNAKNTVYLQMNSLTPEDSAVYYCATKYLQHWWRYDYWGQGTQVTVSS”, “low polyreactivity”; that for “QVQLVESGGGLVQAGGSLRLSCGASGRTFAIYVMGWYRQAPGKERELVAAISRGGSTYYADSVKGRFTISRDNAKNTVYLQMNSLKPEDTAVYYCAAGTGTTSRYYYWGQGTQVTVSS”, “high polyreactivity”.
In the case of “QVQLVESGGGLVQAGGSLRLSCGASGSFFYFYSMGWYRQAPGKEREVVAAITDGGSTHYADSVKGRFTISRDNAKNTVDLQMNSLKPEDTAVYYCAAQWHYYLGSGYQYDYWGQGTQVTVSS” it was “low polyreactivity”.

The values are drawn from the nanobody polyreactivity screen of Harvey et al. (2022).
